Data reported in patent publication US20230374147A1 (HUMMINGBIRD BIOSCIENCE PTE, published 2023).

Columns and labels:
[1] = molecular target: T1, human TACI expressed on cells (human, UniProt O14836 1-293); test: flow cytometry, HEK 293 cells transiently expressing human TACI
T1 construct: also called wildtype human TACI
T1 sequence: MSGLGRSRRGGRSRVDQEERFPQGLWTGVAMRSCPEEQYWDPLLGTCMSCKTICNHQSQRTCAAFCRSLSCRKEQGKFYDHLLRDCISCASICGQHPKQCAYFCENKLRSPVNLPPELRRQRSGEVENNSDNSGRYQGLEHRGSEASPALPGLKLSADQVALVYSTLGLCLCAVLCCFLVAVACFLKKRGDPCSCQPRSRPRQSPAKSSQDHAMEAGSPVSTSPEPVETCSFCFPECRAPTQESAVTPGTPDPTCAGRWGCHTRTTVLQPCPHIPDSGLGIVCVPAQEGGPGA

[2] = molecular target: T2, His-tagged human BCMA (Acro Biosystems, Cat. #BCA-H522y) (human, UniProt Q02223 1-54); test: ELISA, coated His-tagged human BCMA
T2 construct: also called huBCMA; P1; not shown: His tag
T2 sequence: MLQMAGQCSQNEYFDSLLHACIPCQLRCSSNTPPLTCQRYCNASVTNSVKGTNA

[3] = molecular target: T3, human BCMA expressed on cells (human, UniProt Q02223 1-184); test: flow cytometry, fixed RPMI 8226 cells (BCMA+, TACI+: the cells carry both targets)
T3 construct: the cell line is named under assay; also called wildtype human BCMA
T3 sequence: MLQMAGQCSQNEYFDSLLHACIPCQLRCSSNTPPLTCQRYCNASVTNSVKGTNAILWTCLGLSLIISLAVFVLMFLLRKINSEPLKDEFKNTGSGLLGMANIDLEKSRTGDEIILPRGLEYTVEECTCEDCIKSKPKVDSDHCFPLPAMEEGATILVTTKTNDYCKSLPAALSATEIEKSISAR

[4] = molecular target: T2, His-tagged human BCMA (Acro Biosystems, …); test: BLI, His-tagged human BCMA on HIS1K tip; R2 0.9957
[5] = molecular target: T2, His-tagged human BCMA (Acro Biosystems, …); test: competition ELISA: His-tagged human BCMA binding to coated APRIL-Fc in the presence of the antibody

B1: J6M0 (antibody, V domains shown)
VH: QVQLVQSGAEVKKPGSSVKVSCKASGGTFSNYWMHWVRQAPGQGLEWMGATYRGHSDTYYNQKFKGRVTITADKSTSTAYMELSSLRSEDTAVYYCARGAIYDGYDVLDNWGQGTLVTVSS
VL: DIQMTQSPSSLSASVGDRVTITCSASQDISNYLNWYQQKPGKAPKLLIYYTSNLHSGVPSRFSGSGSGTDFTLTISSLQPEDFATYYCQQYRKLPWTFGQGTKLEIK
notes: also called J6M0-hIgG1; anti-BCMA
[1]
  binding result: no binding (tested: 10 ug/ml)
[2]
  EC50 (read off the curve): ~7 ng/mL
[3]
  EC50: ~9.61 nM
[4]
  Kd: < 0.001 nM
[5]
  IC50: 0.92 nM
